Source: patent US20260250737A1, “Engineered Luciferases and Luciferin Substrates” (Monod Bio, Inc., priority 2023, published 2026)
Residue numbers refer to the chain shown, from its start.

B1: 5118 (protein)
chain: MTPEEIIANVKAFYAALASGDLAAAKALFDPGTTITLWDGTTFTSLDEFLAWFEKQFKASKDAKREILDIEVEGDVVRVLVRLTYTVDGKEKVVDLLQLLKFV
B2: 5122 (protein)
chain: B1 chain with I7F, D69S, I70M, V76T, T86V, V87K, K92E, L100I, F102W
B3: 5119 (protein)
chain: MTPEQIRANVERFYAALASGDLETAKALFDPGTTITLWDGTTFTSLEEFLAWFEKQFKASKDAKREIVSLEIEGDTVRVLVRLTYTVDGEVKEVDLLQLLKFV
B4: 5123 (protein)
chain: B3 chain with Q5K, A8E, R12N, T24K, V68K, R78K, D88N, E90K, V91E, E93T
B5: 5116 (protein)
chain: MTPEEIRANVERFYAALASGDLDTAKALFDPGTTITLWDGTTFTSLEEFLAWFEKQFKASKDAKREIVELEIEGNVVRVLVRLTYVKDGKEQVVDLLQLLKFV
B6: 5121 (protein)
chain: MTPEEIKENVKKFYEALASGDLETAKSLFDPGTTITLWDGTTFTSLEEFLAWFEKQFDASKDAKREIVSMEIKGNEVKVLVRLTYTKDGKEQTVDLLQLLKFV
B7: 5120 (protein)
chain: MTPEEIRENVLRFYEALASGDLETAKALFDPGTTITLWDGTTFTSLEEFLAWFEEQFDTSKDAKREILSLEIEGDVVRVLVRLTYVKDGEEKVVDLLQLLKWV
B8: 5117 (protein)
chain: MTDEEIRANVRAFYAALASGDLETAKALFDPGTTITLWDGTTFTSLEEFLAWFEKQFKTSKDAKREIVSLEVEGDTVRVLVRLTYTKDGKEEVVDLLQLLKFV
B9: 5124 (protein)
chain: B8 chain with D3P, R7I, T24A, K58D, T59A, L70I, E92Q
B10: MBIO-5377: computationally generated LgLux, SEQ ID NO 2792 (protein)
chain: MTPEERIADVRAFYAALASGDLEAAKALFDPGVTITLWDGTTFTSVEEFRAWFEEQFKTSKDALREIESIEVDGDTVRVLVRLSFTRNGQKHTVDLLQQFKFI
B11: MBIO-5379: computationally generated LgLux, SEQ ID NO 2794 (protein)
chain: B10 chain with S84T, T86V, N88D, Q90E, K91E, H92K, T93V, Q99L
B12: MBIO-5378: computationally generated LgLux, SEQ ID NO 2793 (protein)
chain: B10 chain with S84T, T86V, N88D, Q90E, K91E, H92K, T93V

System: SmLux
Assay: Computationally generated LgLux variants expressed in E. coli, tested in lysates with SmLux and substrate 1c
Type: biochemical
Conditions: 20 uM SmLux, 50 uM substrate 1c
Description: LgLux sequences were designed computationally, and their activity measured as depicted schematically in FIG. 45.
A library of the computationally generated LgLux variants were expressed in E. coli and tested in lysates. 20 uM of SmLux and 50 uM of substrate 1c was used for the screening.
LgLux_4039 sequence is as set forth in SEQ ID NO:2773. MBIO-5103 through MBIO-5124, MBIO-5261 through MBIO-5295, MBIO-5101, and MBIO-5102 (SEQ ID NO:2815-SEQ ID NO:2873, respectively) are computationally generated LgLux. The sequences and activity of these LgLux are shown below in Table 21.
MBIO-5358 and MBIO-5360 through MBIO-5381 (SEQ ID NO:2774-SEQ ID NO:2796, respectively) are computationally generated LgLux.

Molecule	Fold change upon SmLux peptide addition
B1	1.05
B2	1.04
B3	0.98
B4	1.09
B5	1.11
B6	1.29
B7	1.09
B8	1.05
B9	1.07

Same assay, conditions: 50 uM substrate 1c, before SmLux peptide addition

Molecule	Baseline Signal (Normalized by expression)
B1	152
B2	146.2
B3	155.6
B4	145.6
B5	162.6
B6	126.6
B7	148.4
B8	154.8
B9	187.6

Same assay, conditions: Table 22, 20 uM SmLux, 50 uM substrate 1c

Molecule	Fold change upon SmLux peptide addition
B10	205.44
B11	176.25
B12	85.83

Same assay, conditions: Table 22, 50 uM substrate 1c

Molecule	Baseline Signal (Normalized by expression)
B10	324.4
B11	338.4
B12	197
